Measured values reported in paper PMC3669277, “Interactions between the R2R3-MYB Transcription Factor, AtMYB61, and Target DNA Binding Sites”.
Positions count from the first letter of the chain named. Names and notes keep the numbering of the source.

B1: ACCTAC (AC-I) (dsDNA)
DNA 1: ACATTGGGCGAGAAAAGCTGATCCCCACCTACCCGGGCTATCTCCCCCTCCTCCTCCGATCTG
DNA 2: CAGATCGGAGGAGGAGGGGGAGATAGCCCGGGTAGGTGGGGATCAGCTTTTCTCGCCCAATGT
B2: ACCATA (dsDNA)
DNA 1: B1 DNA 1 with T30A, A31T, C32A
DNA 2: B1 DNA 2 with G32T, T33A, A34T
B3: ACCACC (dsDNA)
DNA 1: B1 DNA 1 with T30A, A31C
DNA 2: B1 DNA 2 with T33G, A34T
B4: ACCAAT (dsDNA)
DNA 1: B1 DNA 1 with T30A, C32T
DNA 2: B1 DNA 2 with G32A, A34T
B5: ACCGAC (AC-I mutant, T4G) (dsDNA)
DNA 1: B1 DNA 1 with T30G
DNA 2: B1 DNA 2 with A34C
B6: ACCAAA (dsDNA)
DNA 1: B1 DNA 1 with T30A, C32A
DNA 2: B1 DNA 2 with G32T, A34T
B7: ACCACA (dsDNA)
DNA 1: B1 DNA 1 with T30A, A31C, C32A
DNA 2: B1 DNA 2 with G32T, T33G, A34T
B8: ACCTGC (AC-I mutant, A5G) (dsDNA)
DNA 1: B1 DNA 1 with A31G
DNA 2: B1 DNA 2 with T33C
B9: ACCTAG (AC-I mutant, C6G) (dsDNA)
DNA 1: B1 DNA 1 with C32G
DNA 2: B1 DNA 2 with G32C
B10: ACCAAC (dsDNA)
DNA 1: B1 DNA 1 with T30A
DNA 2: B1 DNA 2 with A34T
B11: NBS (non-binding site, GAGACC) (dsDNA)
DNA 1: B1 DNA 1 with A27G, C28A, C29G, T30A, A31C
DNA 2: B1 DNA 2 with T33G, A34T, G35C, G36T, T37C

What follows are binders tested against T1, AtMYB61 (Arabidopsis thaliana, UniProt Q8VZQ2 1-366) (assay: filter binding; Buffer, salt, pH and temperature not stated (filter binding per Hall and Kranz; EMSA per earlier work); filter binding with 1065 nM probe (124.41 ng, 60 bp) in). Conditions: protein: recombinant; tags: pET15b (NdeI/BamHI) fusion.
T1 sequence (Q8VZQ2 whole entry, the tested form may be a part): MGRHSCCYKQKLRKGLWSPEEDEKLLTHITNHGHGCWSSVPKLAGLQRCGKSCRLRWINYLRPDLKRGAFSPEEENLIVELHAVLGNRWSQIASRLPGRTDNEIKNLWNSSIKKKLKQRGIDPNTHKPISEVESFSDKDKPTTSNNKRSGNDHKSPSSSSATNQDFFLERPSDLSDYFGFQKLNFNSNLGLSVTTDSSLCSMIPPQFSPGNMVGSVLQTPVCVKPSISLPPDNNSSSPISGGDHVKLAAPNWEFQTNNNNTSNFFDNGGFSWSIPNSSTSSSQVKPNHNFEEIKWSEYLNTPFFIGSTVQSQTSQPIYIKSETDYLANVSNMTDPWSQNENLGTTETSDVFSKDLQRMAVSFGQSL
B1 showed a Kd of 9.12 nM.
With B2 the Kd was 18.3 nM.
For B3, the Kd was 690 nM.
Work on B4 yielded a Kd of 12.1 nM.
Work on B5 yielded a Kd of 719 nM.
B6 was tested, and the Kd was 16.8 nM.
Work on B7 yielded a Kd of 80.8 nM.
B8 was tested, and the Kd was 79.7 nM.
For B9, the Kd was 56 nM.
Binder B10 has a Kd of 73.7 nM.

What follows are binders tested against T1, AtMYB61 (assay: EMSA; 5E-08 M protein; Buffer, salt, pH and temperature not stated (filter binding per Hall and Kranz; EMSA per earlier work); filter binding with 1065 nM probe (124.41 ng, 60 bp) in). Conditions: protein: recombinant; tags: pET15b (NdeI/BamHI) fusion.
B11: no binding.
